Assay: yeast display, Sf9 membrane polyspecificity reagent, FACS + sequencing; frameworks hold sequencing errors
In short: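 Polyreactivity labels are assigned by the sorting gate from which each nanobody was recovered. The gates were low and high (top ~1%), set on anti-HA fluorescence for expression and streptavidin fluorescence for reagent binding. Before sorting, galactose-induced (36–48 hours) yeast display cells were stained for 1 hour at 4 °C with 10% biotinylated, detergent-solubilized Sf9 membrane reagent.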

Sequence | polyreactivity (PSR sort gate)
QVQLVESGGGLFQAGGSHRLSCAASGSTFTPYAMGWYRQAPGKEREFVARISWTGGSTYYADSVKGRFTISRDNAKNTVYLQMNSLKPEDTAVYYCAARYGYSYYRRDYWGQGTQVTVSS | high polyreactivity
QVQLVESGGGLFQAGGSILLSCPASGSTFDNYSMGWYRQAPGKERELVAGISWSGGSTFYADSVKGRFTISRDNAKYTVYLQMNSLKTEDTAVYYCAARIRYLDVRDNDNYYWGQGTQVTVSS | low polyreactivity
QVQLVESGGGLFQAGGSLRISCAASGLTFKINAMGWYRQAPGKERELVAAISSGTSTNYADSVKGRFTISRDNAKNTVYLQMNSLKPEDTAVYYCAARGFWGVAYRYYYWGQGTQVTVSS | high polyreactivity
QVQLVESGGGLFQAGGSLRISCAASGSTFLVNAMGWYRQAPGKEREFVAAITWTGGSTYYADSVKGRFTISRDNAKNSVYLQMNRLKPEDTAVYYCNTDWTYYGDQYRRGGYWGQGTQVTVSS | low polyreactivity
QVQLVESGGGLFQAGGSLRISCAASGTFVTYMGWYRQAPGKERELVAAIRNGGSTNYADSVKGRFTISRDNAKNTVYLQMNSLKPDDTAVYYCAARVTYSRGYRGGSRNKYDYWGQGTQVTLSS | low polyreactivity
QVQLVESGGGLFQAGGSLRITCAASGITFSYNAMGWYRQAPGKVRELVAGITWSGGSTYYADSVTGRFTISRDNAKNTVYLQMYSVKREDTAVYYCAASRSFPGYGLYYYWGQGTQVTVSS | low polyreactivity
QVQLVESGGGLFQAGGSLRLICAASGFIFGGSDMGWYRQAPGKERELVAAISRSGGSTYYADYVKGRFTISRDNAKNTVYLQMNSMKREDTAVYYCNSVPRRQGFNYLGQGTQVTVSS | high polyreactivity
QVQLVESGGGLFQAGGSLRLRCAASGFIFGVNAMGWYRQAPGKERELVAAITSTGGRTYYADSVKGRFTISRDNAKNTVYLQMNSLKPVDTAVYFCARYQTGGYGYWGQGTQVTVSS | high polyreactivity
QVQLVESGGGLFQAGGSLRLSCAASGFIFGQNAMGWYRQAPGKERELVAAIDWTGGRTYYADSVKGRFTISRDNAKNTVYLQMNSLKPEDTAVYYCAADGVWYADSPYSIHYGYWGQGTQVTVSS | low polyreactivity
QVQLVESGGGLFQAGGSLRLSCAASGFTCSGYAMGWYRPAPGKERELVAGISASAGSTYADSVKGRFTISRDNAKNTVYLQMNSLKPEDTAVYYCAADLSFKAAIWFNEYGYWGQGTQVTVSS | low polyreactivity
QVQLVESGGGLFQAGGSLRLSCAASGFTIEWYAMGWYRQAPGKERELVATITSSGDSTYYADSEKGRFTISRDNAKNTVYFQMYSLKPEDTAVYYCNVDNSVYDFSEYVYWGQVTQVTVSS | high polyreactivity
QVQLVESGGGLFQAGGSLRLSCAASGFTSLWYGIGWYRPAPGKERELVAAITSDSSTYYADSVKGRFTISRDNAKNTVYLQMYSLKPQDTAVYSCAKYFVYVGYGRYAFWGQGTQVTVSS | low polyreactivity
QVQLVESGGGLFQAGGSLRLSCAASGIIFPRYMGWYRQAPGKERELVAAIRWSSDDTNYADSVKGRFTISRDNAKNTVYLQMNSLKPEDTAVYYCAADSYYDRTIQFEFSARTYEYWGQGTQVTVSS | low polyreactivity
QVQLVESGGGLFQAGGSLRLSCAASGIIFYVNDMGWYRQAPGKERELVADISGGTSTNYADSVKGRFTISRDNAKNTVYLQMNSLKPEDTAVYYCATAFIVQFPGSDYWGQGTQVTVSS | low polyreactivity
QVQLVESGGGLFQAGGSLRLSCAASGRIFAYYTMGWYIQAPGKERELVAAITKRGGSTYYADSVKGRFTISRDNAKNTFYLQMNSLKPEDTAVYYCAADPNRYRYRSPHDYWGQGTQVTVSS | high polyreactivity
QVQLVESGGGLFQAGGSLRLSCAASGRIFGNNTMGWYRQAPGKERELVAAINSGGRTYYADSVKGRFTISRDNAKYTVYLQMNSLKTEDTAVYYCATTTYKRFYRAPTSKYDYWGQGTLVTVSS | high polyreactivity

Sequence | polyreactivity (PSR sort gate)
QVQLVESGGGLFQAGGSLRLSCAASGRILDYYAMGWYRQAPGKERELVAAIRRRGVITYADSVKGRFTISRDNAKNTVYLLMKSLKPEDTAVYYCAAGGYEYGYWGQGTQVTVSS | low polyreactivity
QVQLVESGGGLFQAGGSLRLSCAASGRTFQNAMGWYRQAPGKERELVAAISVRGTRTYYADSVKGRFTISRDNAKNTVYLQMNSLKPEDTAVYYCAADRGKATSADDYWGQGTQVTVSW | high polyreactivity
QVQLVESGGGLFQAGGSLRLSCAASGRTFYPNAMGWYRQAPGKERELVAAISWSVGTTHYADSVKGRFTISRDNAKNSVYLQMLSLKPEDTAVYYCNARWYYGVYDYWGQGTQVTVSS | low polyreactivity
QVQLVESGGGLFQAGGSLRLSCAASGSIFGYYAMGWYIQAPGKERELVARISYSGGTTYYADSVKGRFTISRDNAKNTVYLQMNSLKPEDTAVYYCNARIPYSWRYGYWGQGTQVTVSS | high polyreactivity
QVQLVESGGGLFQAGGSLRLSCAASGSIFTRYAMGWYRQAPGKERELVAAISNRGGRTYYADSVKGRFTISRDNAKNTVYLQMNILKPEDTAVYYCNAATTRRIPQSDNYWGQGTQVTVSS | high polyreactivity
QVQLVESGGGLFQAGGSLRLSCAASGSIFVRNAMGWYRKATGKERELVAGISATGGSTYYADSVKGRFTISRDNAKITVYFQMKSLKPEDTAVYYCAKKVSTRFARYRYDYWGQVTQVTVSS | high polyreactivity
QVQLVESGGGLFQAGGSLRLSCAASGSTFDTYAMGWYRQAPGKERELVAAISYRGGNTYYADSVKGRFTISRDNAKNTVYLQMNSLKPEDTAVYYCNAGVSIGRSRRYDYWGQGTQVTVSS | low polyreactivity
QVQLVESGGGLFQAGGSLRLSCAASGSTFGRYAMGWYRQAPGTEREWLAAISRRGGSTYYADSVKGRFTISRDNAKNTVYLQMNSLKPEDSAVYYCATGYPIDLGREFDYWGQGFQVTVSS | high polyreactivity
QVQLVESGGGLFQAGGSLRLSCAASGSTFNTNAMAWYRHAPGKERELVAAISWSSTRTYYADSVKWRFTISRDNAKNTVYLQMNSLKPEDTAVYYCAAATYQSRYFQRFDYWGQGTQVTVSS | high polyreactivity
QVQLVESGGGLFQAGGSLRLSCAASGSTFRANAMGWYRQAPGKETELVAAISQSGGITYYADSVKVRFTISRDNAKNTVYLQMKSLKPEDTAVYYCAALGYRIIRGRFYSWGQGTQVTVSS | high polyreactivity
QVQLVESGGGLFQAGGSLRLSCAASGSTFRHYDMAWYRQAPGKERELVAVISWGGTSTYYADSVKGRFTISRDNAKNTVYLQMHSLKPEDTGVYYCNKAYFPIFKGYEMYYWGQGTQVTVST | low polyreactivity
QVQLVESGGGLFQAGGSLRLSCAASGSTFSPNGMGWYRQSPGKERELVAVISTTGGGTYYADSVKVRFTISRDNAKNTVYLQLNSLKPEDTAVYYCAADVWTYSWSWRKYVEFNYWGQGTQVTVSS | high polyreactivity
QVQLVESGGGLFQAGGSLRLSCAASGSTFYIYAMGWYRQAPGKEREFFAAIDFSGSSTYADSEKGRFTISRDNAKNTVYVQMNSLKPEDTAVYYCAAYQIYQYDGPYDYWGQGTQVTVSS | low polyreactivity
QVQLVESGGGLFQAGGSLRLSCAASGSTLAGYTMGWYRQAPGKERELVASISFTGGSTYYADSVKGRFTISRDNAKNTVYLQMNSLKPEDTAVYYCAAGTWQYYFLYDTYRRYYYWGQGTQVTGSS | high polyreactivity
QVQLVESGGGLFQAGGSLRLSCAASGSTLVKNAMGWYRQAPGKERELVAAIDYNDDITYYADSVKGRFTISRDTAKNTVYLQMNSLKPEDTAVYYCAAEPYAGPELDYWGQGTQVTVSS | high polyreactivity

From the nanobody polyreactivity screen of Harvey et al. (2022)
